Assay [1] deals with T1, Grapevine fanleaf virus strain F13 (purified viral particles) (Grapevine fanleaf virus, strain F13) (UniProt P18474).
T1 sequence (looked up): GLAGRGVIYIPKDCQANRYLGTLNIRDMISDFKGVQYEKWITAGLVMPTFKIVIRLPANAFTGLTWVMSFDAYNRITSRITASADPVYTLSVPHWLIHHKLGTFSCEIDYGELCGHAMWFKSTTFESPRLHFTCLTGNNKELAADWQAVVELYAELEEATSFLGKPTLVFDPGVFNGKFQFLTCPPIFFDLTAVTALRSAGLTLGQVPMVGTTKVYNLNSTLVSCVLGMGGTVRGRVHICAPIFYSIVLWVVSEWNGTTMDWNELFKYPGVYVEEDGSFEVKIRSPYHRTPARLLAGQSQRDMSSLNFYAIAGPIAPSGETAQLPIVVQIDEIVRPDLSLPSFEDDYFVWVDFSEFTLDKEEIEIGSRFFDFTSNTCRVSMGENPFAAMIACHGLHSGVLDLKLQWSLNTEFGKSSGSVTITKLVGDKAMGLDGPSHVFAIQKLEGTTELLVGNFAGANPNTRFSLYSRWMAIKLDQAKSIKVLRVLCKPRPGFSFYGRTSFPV
In words: dynamic light scattering: GFLV-F13 at 0.1 mg/ml with Nb23 at 0.1 mg/ml; virus alone 32 nm.

In assay [2] the target is T1, Grapevine fanleaf virus strain F13 (purified viral particles) (Grapevine fanleaf virus, strain F13). In words: dynamic light scattering: GFLV-F13 at 0.1 mg/ml with Nb23:EGFP at 0.9 mg/ml; virus alone 32 nm.

From patent publication EP2899279A1 come the findings set out here.

B1: Nb23 (His6-tagged, purified from E. coli) (VHH)
VHH: QVQLQESGGGSVQVGGSLRVACAASGDTFSGYLAAWFRQAPGKGREGVAAINSKRHTTSYADSVKGRFTISKDNADNIMYLEMNSLKPEDTAIYYCAAADAIGLAEYWSTPTLSAARYKYWGQGTQVTVSS
With B1, in assay [1], the average hydrodynamic diameter of viral particles in the presence of the binder stood at 37.8 nm.

B2: Nb23:EGFP fusion protein (Nb23:EGFP:His6, expressed in E. coli) (protein, part only; not given: EGFP and cloning residues, not shown: large carriers)
chain, part: QVQLQESGGGSVQVGGSLRVACAASGDTFSGYLAAWFRQAPGKGREGVAAINSKRHTTSYADSVKGRFTISKDNADNIMYLEMNSLKPEDTAIYYCAAADAIGLAEYWSTPTLSAARYKYWGQGTQVTVSSGGGSGGGHHHHHH
Regarding B2, the average hydrodynamic diameter of viral particles in the presence of the binder in assay [2] turned out to be 43.8 nm.
